The target of data set [1] is hMIGA2_(long)-6xhis (human) (UniProt Q7L4E1). The data set can be described thus: native MS.
The data set “SEC” concerns the molecule itself. The experiment in a line: SEC. A general note: In gel filtration, larger molecules generally elute earlier.

Results on 2 molecules are retold here after publication doi:10.1101/2022.07.08.499339 (bioRxiv, 2022).

By stoichiometry N is commonly meant a count of units in the complex or per binding partner.

With “hMIGA2_(long)-6xhis (from UniProt Q7L4E1 170-593) (domain or fragment)”, the stoichiometry N in data set [1] stood at 2.

B1: CeMIGA2_(long), C. elegans MIGA (106-496) (domain or fragment, UniProt Q21096 106-496, looked up)
chain: SMNPIEADITSGQELCTELRKTIEKVHHNLEMVKNRSSKDMERSIKIEGILKGLKQVEDEIVLLVPQMEDFRDDNMEFYSVSGGSGYAGSVRTGRSRTLSVLSDDSFRSAVEEFACDIDDIDFVSDAANLDKNELRFLDEGMQAALNGEVKYRKSRMEFCKCDSETDFAAKLYCVRQALTNALKDEHKRVWLAKCGRTLLADFIRHTKQDPVKFFNAYDEMLEYVSNDRNEEQLRQDVEGRGVCETGFYDVAIDFIILDAFEDLKSPPSAVYSVTKNYFMSMSMKYSTLNTIIWSIIKSKRQRLKNPDGFIAKFYNISETVMPAITLGFLGTDERLGELCQYFKEQVVQFVLDVFNTQKVCYRSLEEMSEDVWIVMRNRLEAVQTRMSNEL
With B1, the “stoichiometry N” value in the data set “SEC” was 2.
